Measured values reported in the supplement of paper PMC7125110.
± gives the standard error. Fewer inactive variants are shown than the library holds.

B1: glmS ribozyme (parent)
chain: AUAAAAGCGCCAGAACUACAGAAAUGUAGUUGACGAGGAGGAGGUUUAUCGAAUUUUCGGCGGAUGCCUCCAAA

How the values were obtained:
Conditions in all cases: with glucosamine-6-phosphate
glucosamine-6-phosphate [1] = variants of: B1; test: self-cleavage kobs at 40 uM GlcN6P; higher = faster cleavage; RNA array
Procedure, shortened: (§1)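 Using a hybridised Cy3 probe at 37 °C, barcoded ribozyme variants transcribed in situ by E. coli RNA polymerase on sequenced MiSeq chips were monitored across tiles imaged over ~14 h. The flow contained glucosamine-6-phosphate from 40 μM to 10 mM in HEPES/KCl/Mg(OAc)2 buffer. Signals were normalised to baseline and to non-cleaving reference variants before per-tile medians were fit to one- or two-exponential decays to yield kobs. Weighted Michaelis–Menten fits across concentrations gave kcat and KM.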

glucosamine-6-phosphate [2] = variants of: B1; test: self-cleavage kobs at 160 uM GlcN6P; higher = faster cleavage; RNA array
Procedure, shortened: as §1

glucosamine-6-phosphate [3] = variants of: B1; test: self-cleavage kobs at 640 uM GlcN6P; higher = faster cleavage; RNA array
Procedure, shortened: as §1

glucosamine-6-phosphate [4] = variants of: B1; test: self-cleavage kobs at 2500 uM GlcN6P; higher = faster cleavage; RNA array
Procedure, shortened: as §1

glucosamine-6-phosphate [5] = variants of: B1; test: self-cleavage kobs at 10000 uM GlcN6P; higher = faster cleavage; RNA array
Procedure, shortened: as §1

Variant | self-cleavage kobs at 40 uM GlcN6P (glucosamine-6-phosphate [1]) | self-cleavage kobs at 160 uM GlcN6P (glucosamine-6-phosphate [2]) | self-cleavage kobs at 640 uM GlcN6P (glucosamine-6-phosphate [3]) | self-cleavage kobs at 2500 uM GlcN6P (glucosamine-6-phosphate [4]) | self-cleavage kobs at 10000 uM GlcN6P (glucosamine-6-phosphate [5])
C11U G13C C16A U49A | < 1e-05 s⁻¹ | < 1e-05 s⁻¹ | < 1e-05 s⁻¹ | – | –
C11U C16A G44C | < 1e-05 s⁻¹ | – | < 1e-05 s⁻¹ | – | –
A12U A14G | 0.00336 ± 0.00044 s⁻¹ | 0.00737 ± 0.0027 s⁻¹ | 0.0265 ± 0.0078 s⁻¹ | – | –
A12U G37C A53C U54A | < 1e-05 s⁻¹ | – | – | – | –
A15C G66A | 8.43e-05 ± 1.9e-05 s⁻¹ | 0.000372 ± 0.00011 s⁻¹ | 0.000599 ± 0.00014 s⁻¹ | 0.00264 ± 0.00049 s⁻¹ | 0.00503 ± 0.0012 s⁻¹
C11U G29U A39U A64U | < 1e-05 s⁻¹ | – | – | – | –
C11U G60C | < 1e-05 s⁻¹ | < 1e-05 s⁻¹ | – | – | < 1e-05 s⁻¹
A14G U31C G41C G63A | < 1e-05 s⁻¹ | – | – | – | < 1e-05 s⁻¹
C11A U45C | < 1e-05 s⁻¹ | – | < 1e-05 s⁻¹ | – | –
C11U A36G C50G | 8.31e-05 ± 2.8e-05 s⁻¹ | – | 0.000352 ± 0.00014 s⁻¹ | – | 4.94e-05 ± 1.5e-05 s⁻¹
C11A G41U | < 1e-05 s⁻¹ | < 1e-05 s⁻¹ | < 1e-05 s⁻¹ | < 1e-05 s⁻¹ | –
A14U U55G C58U G66U C67G | 0.00272 ± 0.001 s⁻¹ | – | – | – | –
G13C A39G A64U | < 1e-05 s⁻¹ | – | – | < 1e-05 s⁻¹ | –
A12U G35U U49C | < 1e-05 s⁻¹ | – | – | < 1e-05 s⁻¹ | –
G13A G60U A64C | < 1e-05 s⁻¹ | – | – | – | –
G13A G44C C61A U69G | < 1e-05 s⁻¹ | – | – | – | –
A15G C50A A64G | < 1e-05 s⁻¹ | – | – | – | –
A15G C16U A52U U57A G59U | < 1e-05 s⁻¹ | < 1e-05 s⁻¹ | – | – | < 1e-05 s⁻¹
A12G G13C A33U G63U | < 1e-05 s⁻¹ | – | – | – | < 1e-05 s⁻¹
C10G C11U | < 1e-05 s⁻¹ | – | < 1e-05 s⁻¹ | – | –
C10U A33G C70U | < 1e-05 s⁻¹ | – | – | – | < 1e-05 s⁻¹
C10U C16G G29U | < 1e-05 s⁻¹ | – | – | – | –
C10G G43A A48G U54G C58A A64U | < 1e-05 s⁻¹ | – | < 1e-05 s⁻¹ | < 1e-05 s⁻¹ | < 1e-05 s⁻¹
C10U A64G C68A | < 1e-05 s⁻¹ | – | – | – | –
C11G G62C A64G C68G | < 1e-05 s⁻¹ | – | – | – | < 1e-05 s⁻¹
A12G A33G G37U | < 1e-05 s⁻¹ | – | – | – | < 1e-05 s⁻¹
A12U U54A | 0.00273 ± 0.00049 s⁻¹ | 0.00304 ± 0.00084 s⁻¹ | 0.0221 ± 0.0044 s⁻¹ | 0.0233 ± 0.0078 s⁻¹ | 0.121 ± 0.059 s⁻¹
